From patent US20220396635A1 (UNIVERSIT T STUTTGART, published 2022) come the findings set out here.

Assay [1] deals with T1, EGFR (UniProt P00533 25-1210, limits assumed). As to the kind of experiment: cell-based or functional assay.
Assay [2] has as its target T1, EGFR. Briefly: flow cytometry, serial dilution on LIM1215 cells (EGFR-expressing), PE anti-human Fc detection. As to the method: (§1) Binding analysis of the trivalent, bispecific antibodies was performed by flow cytometry using tumor cell lines with different EGFR-expression levels (FIG. 20) (Table 12). Adherent cells were washed with PBS and shortly trypsinized at 37° C. Trypsin was quenched with FCS-containing medium and removed by centrifugation (500×g, 5 min.). Target cells (FaDu, LIM1215, SKBR-3, T-47-D, MCF-7 and Jurkat cells) at 1×10⁵ cells/well were incubated with a serial dilution of trivalent, bispecific antibodies for 1 h at 4° C. After removing excess of recombinant protein by washing with PBA (PBS, 2% FBS, and 0.02% sodium azide), bound protein was detected using PE-conjugated anti-human Fc mAb (Jackson ImmunoResearch Laboratories Inc). Fluorescence was measured using MACSquant VYB (Miltenyi Biotec) and data were analyzed using FlowJo (Tree Star). Relative median fluorescence intensities (MFI) were calculated as followed: relative MFI=((MFIₛₐₘₚₗₑ-(MFIdetection-MFIcells))/MFIcells).
On the technique in general: In flow cytometry, cells or beads pass a laser one at a time.

Assay [3] deals with T1, EGFR. Briefly: flow cytometry, serial dilution on FaDu cells (EGFR-expressing), PE anti-human Fc detection. As to the method:
as §1

The target in assay [4] is T1, EGFR. Briefly: flow cytometry, serial dilution on T-47-D cells (EGFR-expressing), PE anti-human Fc detection. As to the method: as §1
Assay [5] concerns the target T1, EGFR. As to the kind of experiment: flow cytometry, serial dilution on SKBR-3 cells (EGFR-expressing), PE anti-human Fc detection. As to the method:
as §1

The target in another assay is T2, CD3 (UniProt P07766 23-207).
T2 construct: whole, on cells; on cells it stands in the TCR/CD3 complex; also called CD3 on Jurkat cells
As to the kind of experiment: flow cytometry, serial dilution on Jurkat cells (CD3-expressing), PE anti-human Fc detection. As to the method:
as §1

The target of assay [6] is T1, EGFR. As to the kind of experiment: flow cytometry, serial dilution on MCF-7 cells (EGFR-expressing), PE anti-human Fc detection. As to the method: as §1

B1: scDb/Fab-Fc (1-2)+1, trivalent bispecific anti-EGFRxanti-CD3 (bispecific antibody)
chain: EVQLVESGGGLVQPGGSLRLSCAASGFSLTNYGVHWVRQAPGKGLEWLGVIWSGGNTDYNTPFTSRFTISRDNSKNTLYLQMNSLRAEDTAVYYCARALTYYDYEFAYWGQGTTVTVSSGGGGSDIQMTQSPSSLSASVGDRVTITCRASQDIRNYLNWYQQKPGKAPKLLIYYTSRLHSGVPSRFSGSGSGTDFTFTISSLQPEDIATYYCQQGNTLPWTFGQGTKLEIKRGGGGSGGGGSGGGGSQVQLVQSGAEVKKPGSSVKVSCKASGGTFSGYTMNWVRQAPGQGLEWMGLINPYKGVSTYNGKFKDRVTITADKSTSTAYMELSSLRSEDTAVYYCARSGYYGDSDWYFDVWGQGTLVTVSSGGGGSDIQLTQSPSFLSASVGDRVTITCRASQSIGTNIHWYQQKPGKAPKLLIKYASESISGVPSRFSGSGSGTEFTLTISSLQPEDFATYYCQQNNNWPTTFGAGTKLEIKRAAADKTHTCPPCPAPPVAGPSVFLFPPKPKDTLMISRTPEVTCVVVDVSHEDPEVKFNWYVDGVEVHNAKTKPREEQYNSTYRVVSVLTVLHQDWLNGKEYKCKVSNKGLPSSIEKTISKAKGQPREPQVCTLPPSRDELTKNQVSLSCAVKGFYPSDIAVEWESNGQPENNYKTTPPVLDSDGSFFLVSKLTVDKSRWQQGNVFSCSVMHEALHNHYTQKSLSLSPGK
heavy: EVQLVESGGGLVQPGGSLRLSCAASGFSLTNYGVHWVRQAPGKGLEWLGVIWSGGNTDYNTPFTSRFTISRDNSKNTLYLQMNSLRAEDTAVYYCARALTYYDYEFAYWGQGTTVTVSSASTKGPSVFPLAPSSKSTSGGTAALGCLVKDYFPEPVTVSWNSGALTSGVHTFPAVLQSSGLYSLSSVVTVPSSSLGTQTYICNVNHKPSNTKVDKKVEPKSCGTDKTHTCPPCPAPPVAGPSVFLFPPKPKDTLMISRTPEVTCVVVDVSHEDPEVKFNWYVDGVEVHNAKTKPREEQYNSTYRVVSVLTVLHQDWLNGKEYKCKVSNKGLPSSIEKTISKAKGQPREPQVYTLPPCRDELTKNQVSLWCLVKGFYPSDIAVEWESNGQPENNYKTTPPVLDSDGSFFLYSKLTVDKSRWQQGNVFSCSVMHEALHNHYTQKSLSLSPGK
light: DIQLTQSPSFLSASVGDRVTITCRASQSIGTNIHWYQQKPGKAPKLLIKYASESISGVPSRFSGSGSGTEFTLTISSLQPEDFATYYCQQNNNWPTTFGAGTKLEIKRTVAAPSVFIFPPSDEQLKSGTASVVCLLNNFYPREAKVQWKVDNALQSGNSQESVTEQDSKDSTYSLSSTLTLSKADYEKHKVYACEVTHQGLSSPVTKSFNRGEC
notes: also called scDbhu225xhuU3-Fc(hole)Δab + Fdhu225-Fc(knob)Δab + VLhu225-CLκ
Take B1: in the assay with EGFR [1], the “EC50 of PBMC cytotoxicity on FaDu cells, E:T 5:1” value (shortened to “EC50 … on FaDu cells, E:T 5:1”) stood at 0.05 nM. Also, in the assay with EGFR [1], the “EC50 of PBMC cytotoxicity on SKBR-3 cells, E:T 5:1” value (“EC50 … on SKBR-3 cells, E:T 5:1” for short) was 0.209 nM. Further, the EC50 turned out to be 0.2 nM with EGFR [2]; 0.2 nM with EGFR [3]; 0.03 nM in the assay with EGFR [4]; 0.1 nM with EGFR [5]; 1 nM with CD3; 0.04 nM with EGFR [6].

B2: scDb/Fab-Fc (2-1)+1, trivalent bispecific anti-EGFRxanti-CD3 (bispecific antibody)
chain: QVQLVQSGAEVKKPGSSVKVSCKASGGTFSGYTMNWVRQAPGQGLEWMGLINPYKGVSTYNGKFKDRVTITADKSTSTAYMELSSLRSEDTAVYYCARSGYYGDSDWYFDVWGQGTLVTVSSGGGGSDIQLTQSPSFLSASVGDRVTITCRASQSIGTNIHWYQQKPGKAPKLLIKYASESISGVPSRFSGSGSGTEFTLTISSLQPEDFATYYCQQNNNWPTTFGAGTKLEIKRGGGGSGGGGSGGGGSEVQLVESGGGLVQPGGSLRLSCAASGFSLTNYGVHWVRQAPGKGLEWLGVIWSGGNTDYNTPFTSRFTISRDNSKNTLYLQMNSLRAEDTAVYYCARALTYYDYEFAYWGQGTTVTVSSGGGGSDIQMTQSPSSLSASVGDRVTITCRASQDIRNYLNWYQQKPGKAPKLLIYYTSRLHSGVPSRFSGSGSGTDFTFTISSLQPEDIATYYCQQGNTLPWTFGQGTKLEIKRAAADKTHTCPPCPAPPVAGPSVFLFPPKPKDTLMISRTPEVTCVVVDVSHEDPEVKFNWYVDGVEVHNAKTKPREEQYNSTYRVVSVLTVLHQDWLNGKEYKCKVSNKGLPSSIEKTISKAKGQPREPQVCTLPPSRDELTKNQVSLSCAVKGFYPSDIAVEWESNGQPENNYKTTPPVLDSDGSFFLVSKLTVDKSRWQQGNVFSCSVMHEALHNHYTQKSLSLSPGK
heavy: EVQLVESGGGLVQPGGSLRLSCAASGFSLTNYGVHWVRQAPGKGLEWLGVIWSGGNTDYNTPFTSRFTISRDNSKNTLYLQMNSLRAEDTAVYYCARALTYYDYEFAYWGQGTTVTVSSASTKGPSVFPLAPSSKSTSGGTAALGCLVKDYFPEPVTVSWNSGALTSGVHTFPAVLQSSGLYSLSSVVTVPSSSLGTQTYICNVNHKPSNTKVDKKVEPKSCGTDKTHTCPPCPAPPVAGPSVFLFPPKPKDTLMISRTPEVTCVVVDVSHEDPEVKFNWYVDGVEVHNAKTKPREEQYNSTYRVVSVLTVLHQDWLNGKEYKCKVSNKGLPSSIEKTISKAKGQPREPQVYTLPPCRDELTKNQVSLWCLVKGFYPSDIAVEWESNGQPENNYKTTPPVLDSDGSFFLYSKLTVDKSRWQQGNVFSCSVMHEALHNHYTQKSLSLSPGK
light: DIQLTQSPSFLSASVGDRVTITCRASQSIGTNIHWYQQKPGKAPKLLIKYASESISGVPSRFSGSGSGTEFTLTISSLQPEDFATYYCQQNNNWPTTFGAGTKLEIKRTVAAPSVFIFPPSDEQLKSGTASVVCLLNNFYPREAKVQWKVDNALQSGNSQESVTEQDSKDSTYSLSSTLTLSKADYEKHKVYACEVTHQGLSSPVTKSFNRGEC
notes: also called scDbhuU3xhu225-Fc(hole)Δab + Fdhu225-Fc(knob)Δab + VLhu225-CLκ
On to B2, for which the “EC50 … on FaDu cells, E:T 5:1” value with EGFR [1] was found to be 0.056 nM. In addition, the “EC50 … on SKBR-3 cells, E:T 5:1” value in the assay with EGFR [1] came to 0.209 nM. In addition, the EC50 with EGFR [2] turned out to be 0.2 nM; with EGFR [3], 0.2 nM; with EGFR [4], 0.03 nM; with EGFR [5], 0.1 nM; in the assay with CD3, 1.4 nM; in the assay with EGFR [6], 0.03 nM.

B3: scDb/scFv-Fc (2-1)+1, trivalent bispecific anti-EGFRxanti-CD3 (bispecific antibody)
chain 1: QVQLVQSGAEVKKPGSSVKVSCKASGGTFSGYTMNWVRQAPGQGLEWMGLINPYKGVSTYNGKFKDRVTITADKSTSTAYMELSSLRSEDTAVYYCARSGYYGDSDWYFDVWGQGTLVTVSSGGGGSDIQLTQSPSFLSASVGDRVTITCRASQSIGTNIHWYQQKPGKAPKLLIKYASESISGVPSRFSGSGSGTEFTLTISSLQPEDFATYYCQQNNNWPTTFGAGTKLEIKRGGGGSGGGGSGGGGSEVQLVESGGGLVQPGGSLRLSCAASGFSLTNYGVHWVRQAPGKGLEWLGVIWSGGNTDYNTPFTSRFTISRDNSKNTLYLQMNSLRAEDTAVYYCARALTYYDYEFAYWGQGTTVTVSSGGGGSDIQMTQSPSSLSASVGDRVTITCRASQDIRNYLNWYQQKPGKAPKLLIYYTSRLHSGVPSRFSGSGSGTDFTFTISSLQPEDIATYYCQQGNTLPWTFGQGTKLEIKRAAADKTHTCPPCPAPPVAGPSVFLFPPKPKDTLMISRTPEVTCVVVDVSHEDPEVKFNWYVDGVEVHNAKTKPREEQYNSTYRVVSVLTVLHQDWLNGKEYKCKVSNKGLPSSIEKTISKAKGQPREPQVCTLPPSRDELTKNQVSLSCAVKGFYPSDIAVEWESNGQPENNYKTTPPVLDSDGSFFLVSKLTVDKSRWQQGNVFSCSVMHEALHNHYTQKSLSLSPGK
chain 2: EVQLVESGGGLVQPGGSLRLSCAASGFSLTNYGVHWVRQAPGKGLEWLGVIWSGGNTDYNTPFTSRFTISRDNSKNTLYLQMNSLRAEDTAVYYCARALTYYDYEFAYWGQGTTVTVSSGGGGSGGGGSGGGGSDIQLTQSPSFLSASVGDRVTITCRASQSIGTNIHWYQQKPGKAPKLLIKYASESISGVPSRFSGSGSGTEFTLTISSLQPEDFATYYCQQNNNWPTTFGAGTKLEIKRAAADKTHTCPPCPAPPVAGPSVFLFPPKPKDTLMISRTPEVTCVVVDVSHEDPEVKFNWYVDGVEVHNAKTKPREEQYNSTYRVVSVLTVLHQDWLNGKEYKCKVSNKGLPSSIEKTISKAKGQPREPQVYTLPPCRDELTKNQVSLWCLVKGFYPSDIAVEWESNGQPENNYKTTPPVLDSDGSFFLYSKLTVDKSRWQQGNVFSCSVMHEALHNHYTQKSLSLSPGK
notes: also called scDbhuU3xhu225-Fc(hole)Δab + scFvhu225-Fc(knob)Δab
B3: the “EC50 … on FaDu cells, E:T 5:1” value with EGFR [1] came out at 0.027 nM. In addition, in the assay with EGFR [1], the “EC50 … on SKBR-3 cells, E:T 5:1” value worked out at 0.277 nM. Also, the EC50 with EGFR [2] stood at 0.2 nM; with EGFR [3], 0.7 nM; in the assay with EGFR [4], 0.1 nM; in the assay with EGFR [5], 0.1 nM; in the assay with CD3 it was 16.3 nM; with EGFR [6], 0.1 nM.

As usually defined, the EC50 is the concentration at which the effect is half-maximal. Low values mean an effect from little substance, high ones a need for much substance.
